Where a chain is given by its changes, count along the chain named. Where “and” joins values, the source holds several entries; their conditions need not be identical. Equal entries are not always repeated.
T1: Dnm1K41A (yeast, UniProt P54861 1-757, K41A)
T1 sequence (looked up): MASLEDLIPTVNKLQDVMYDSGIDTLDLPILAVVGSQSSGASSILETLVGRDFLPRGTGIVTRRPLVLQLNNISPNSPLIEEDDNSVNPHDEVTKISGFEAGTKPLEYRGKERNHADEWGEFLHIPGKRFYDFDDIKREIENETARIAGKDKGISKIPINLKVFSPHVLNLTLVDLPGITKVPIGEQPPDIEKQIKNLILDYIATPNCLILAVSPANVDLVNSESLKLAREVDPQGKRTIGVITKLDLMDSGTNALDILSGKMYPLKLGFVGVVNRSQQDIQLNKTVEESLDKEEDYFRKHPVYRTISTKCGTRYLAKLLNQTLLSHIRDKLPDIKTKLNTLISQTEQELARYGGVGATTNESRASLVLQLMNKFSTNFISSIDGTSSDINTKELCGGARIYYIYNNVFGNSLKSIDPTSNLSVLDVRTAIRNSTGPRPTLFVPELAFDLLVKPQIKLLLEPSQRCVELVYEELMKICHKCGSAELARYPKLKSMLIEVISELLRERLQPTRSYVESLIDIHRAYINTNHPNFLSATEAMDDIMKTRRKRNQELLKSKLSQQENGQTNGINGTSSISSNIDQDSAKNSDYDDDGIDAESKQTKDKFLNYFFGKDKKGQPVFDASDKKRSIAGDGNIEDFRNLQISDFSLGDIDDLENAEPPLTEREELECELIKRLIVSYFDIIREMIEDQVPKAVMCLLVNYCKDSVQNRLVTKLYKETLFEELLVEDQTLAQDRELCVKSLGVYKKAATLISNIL

B1: Dnm1 (enzyme, yeast, UniProt P54861 1-757, looked up)
chain: T1 sequence (looked up) with A41K
B2: Mdv1 (natural protein, yeast, UniProt P47025 1-714, looked up)
chain: MSVNDQITHIGKTLSTTASAFLNYQKSNSNTQDVLTNNGPYKNLLSNTVNNASSTSYFYKRTEHGRFVKNASNTFEDIYSKTRRGDVFRNKFTDNKTCFRMLTYISDDLLNEIPTKEGLKSDADGKLLTEGGENENLRKNASKKETSLFQGFKSYLPIAELAIENTERLNYDTNGTSGTVGAKDVMSKTNERDEIHTELPNFQDSFLIPPGVETKKISSSYSPSALKSFSQTLVNSLEFLNIQKNSTLSEIRDIEVEVENLRQKKEKLLGKIANIEQNQLLLEDNLKQIDDRLDFLEEYGLEVIEANSDENAEDDGMSERKALKNDAIRNEGVTTESISSEASNLPPRRRQQLRDDNSLNRLGAFYSKSKKRHRKSFPTFQQLYEPGTKIGSIMSTHDDFLTCLDFDAPFGTLCTAGYLDHTVKIWDLSKQNKIGELAGHLATINCMQINRDYGTLVTGGRDAALKLWNLNLAQQLYQETQNLTSPTNHIDSPCVHTFEAHTDEVTALSLDPSFLVSGSQDRTIRQWDLRSGKCLQTIDLSFANVLTTSTNVDLSKSTLLTQRNERPSIGALQSFDAALATGTKDGVVRLWDLRSGKVIRTLKGHTDAITSLKFDSACLVTGSYDRTVRIWDLRTGLLNKFHAYSAPVLSLDLFQENAAVVVADEPSVQIYDSEKDESWSCVEQGNETSVSTVKYKENYMVEGRENGDVNIWAV

Legend:
[1] = molecular target: the molecule itself; experiment: negative-stain electron microscopy
[2] = molecular target: B1; experiment: cell-based or functional assay
[3] = molecular target: the molecule itself; experiment: cross-linking
[4] = molecular target: the molecule itself; experiment: SEC + other: sucrose gradient sedimentation
[5] = molecular target: T1, Dnm1K41A; experiment: liposome flotation

Row | amount of GTP cross-linked to Dnm1 by ultraviolet light on addition of Mdv1 [2] [fold] | binding result [5] | Binder | binding result [1] | stoichiometry N [3] | stoichiometry N [4]
1 |  |  | B1 | binds |  | 
2 | 1.4 | binds | B2 |  | 4 and 6 | 2

— paper PMC6546417 (Science (New York, N.Y.), 2009)
